Substitutions are numbered along the chain they refer to.
What was measured:
Assay in all cases: pull-down; 100 ug His6-tagged RAP1 recombinant protein immobilised on TALON resin, incubated O/N at 4 C with purified GST-fusion proteins in pull-down buffer (50 mM Na2HPO4, 75 mM NaCl, 0.1% Triton X-100, 5 mM imidazole, pH 7.4); eluted with imidazole; Coomassie gel and immunoblot with anti-GST
Details in all cases: both partners purified
[1] = biological target: T1, RAP1(22-152), recombinant His6-tagged RAP1 protein representing amino acids 22-152 (P. falciparum 3D7, UniProt Q9U429 22-152)
T1 construct: contains the RAP1 rhoptry signal (22-55); Amplified from 3D7 genomic DNA, cloned NcoI/XhoI into pET28b upstream of the His6 tag; not shown: His6, C-terminal, kept
T1 sequence: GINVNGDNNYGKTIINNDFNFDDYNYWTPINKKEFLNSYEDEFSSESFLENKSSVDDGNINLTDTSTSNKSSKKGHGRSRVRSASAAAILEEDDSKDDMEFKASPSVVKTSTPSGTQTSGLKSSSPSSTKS

[2] = biological target: T2, RAP1(22-152) mutant, aspartate 39, 43 and 44 to alanine (P. falciparum 3D7, UniProt Q9U429 22-152, aspartate 39 to alanine | aspartate 43 to alanine | aspartate 44 to alanine)
T2 construct: not shown: His6, C-terminal, kept
T2 sequence: T1 sequence with D18A, D22A, D23A

[3] = biological target: T3, RAP1(22-152) mutant, aspartate 39, 43 and 44 to arginine (P. falciparum 3D7, UniProt Q9U429 22-152, aspartate 39 to arginine | aspartate 43 to arginine | aspartate 44 to arginine)
T3 construct: not shown: His6, C-terminal, kept
T3 sequence: T1 sequence with D18R, D22R, D23R

[4] = biological target: T4, RAP1(22-152) mutant, residues 40, 42 and 45 to glycine (P. falciparum 3D7, UniProt Q9U429 22-152, aromatic residue 40 to glycine | aromatic residue 42 to glycine | aromatic …)
T4 construct: not shown: His6, C-terminal, kept
T4 sequence: T1 sequence with F19G, F21G, Y24G

B1: RAMAE1, RAMA-GST fusion protein representing amino acids 759-798 (domain or fragment)
chain: DNKFVAHKKREKSISPHSYQKVSTKVQNKENMENKEKKQL
notes: rhoptry associated membrane antigen (RAMA), P. falciparum, amino acids 759-798; Amplified from P. falciparum cDNA and cloned into pGEX-4T-1; source: E. coli BL21 (DE3), purified (glutathione resin)
**Q.** Does B1 bind [1]?
**A.** binds

B2: RAMAE, RAMA-GST fusion protein representing amino acids 759-840 (domain or fragment)
chain: DNKFVAHKKREKSISPHSYQKVSTKVQNKENMENKEKKQLINDEAAMTAEELVELENTEDVNTPTMVETEEIDFDENGNKSS
notes: rhoptry associated membrane antigen (RAMA), P. falciparum, amino acids 759-840; source: E. coli BL21 (DE3), purified (glutathione resin)
**Q.** Which results are given for B2?
**A.** binding result [2]: binds; binding result [3]: binds; binding result [4]: binds; binding result [1]: binds

— PMC2648313, “Identification of Rhoptry Trafficking Determinants and Evidence for a Novel Sorting Mechanism in the Malaria Parasite Plasmodium falciparum” (PLoS Pathogens, 2009)
